± gives the uncertainty stated by the source.
Experiment: protein stability index of a GFP-peptide fusion (yeast GPS) (PSI 1-4); higher = more stable; sorted into four equal gates, so the index is relative within each strain
Procedure, shortened: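 Each library plasmid carries Cherry plus GFP with a tiled 17-residue yeast protein peptide fused downstream, and the pooled library was carried in yeast. Mid-log cultures in leucine-free medium were sorted into four equal gates by GFP/Cherry ratio. Reads from Illumina sequencing of PCR-amplified plasmids from each gate were assigned to strains by barcodes. Per peptide, the protein stability index was computed as the summed products of gate read frequency and gate number.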

| Sequence | protein stability index (doa10∆) | protein stability index (pdr5∆) | protein stability index (san1∆) | protein stability index (ubr1∆) |
| --- | --- | --- | --- | --- |
| VSECIILGQTMSIGTGS [RPO31] | 2.06 ± 0.078 | 2 ± 0.061 | 1.89 ± 0.086 | 2.58 ± 0.055 |
| VSETPKRIKGLEFSALS [RPO31] | 3.01 ± 0.12 | 2.94 ± 0.12 | 3.01 ± 0.086 | 2.97 ± 0.1 |
| VSFNDSQSMVTNKENNI [YIL149C/MLP2] | 2.96 ± 0.057 | 3.3 ± 0.076 | 3.02 ± 0.057 | 3.16 ± 0.046 |
| VSFNSKQNEQLHVEQLS [SMC3] | 2.27 ± 0.071 | 2.72 ± 0.087 | 2.47 ± 0.1 | 2.85 ± 0.066 |
| VSKEQFLKDADVECIKA [YJL039C/NUP192] | 1.45 ± 0.043 | 1.61 ± 0.059 | 2.17 ± 0.079 | 1.89 ± 0.042 |
| VSKQLGNGLVDENKVEA [YAR002W/NUP60] | 3.17 ± 0.082 | 3.02 ± 0.068 | 3.38 ± 0.048 | 3.21 ± 0.049 |
| VSKVQKRKVLELKKKRK [SRP72] | 2.78 ± 0.1 | 2.57 ± 0.13 | 2.24 ± 0.1 | 2.48 ± 0.054 |
| VSLCAKNMGLVPMKEEN [SSN2] | 1.89 ± 0.086 | 2.38 ± 0.075 | 1.99 ± 0.11 | 2.26 ± 0.093 |
| VSLEERTKNLVSKMEKA [SMC4] | – | 2.95 ± 0.064 | – | – |
| VSLQNFSSSVSLSYMAF [RRP40] | 2.22 ± 0.047 | 1.64 ± 0.041 | 1.76 ± 0.074 | 1.83 ± 0.04 |
| VSLTQLRCVKYLQETAI [RPC82] | 1.82 ± 0.14 | 2.18 ± 0.1 | – | 3.1 ± 0.28 |
| VSNKFEKIFHYGHVFLG [PUP3] | 2.94 ± 0.28 | – | – | – |
| VSRGQSAVLLETTLGEM [PRP8] | 2.13 ± 0.12 | 2.36 ± 0.15 | – | – |
| VSSRVRGYTCQFVDMVL [FAS1] | 1.76 ± 0.09 | 1.94 ± 0.07 | 1.44 ± 0.094 | 2.02 ± 0.081 |
| VSSSKNKKSEENEMIKP [SWP82] | 2.72 ± 0.25 | 3.34 ± 0.14 | 3.18 ± 0.14 | 3.49 ± 0.28 |
| VSTETFEQPSQREEAKK [RPL27A] | 2.9 ± 0.061 | 2.73 ± 0.07 | 2.73 ± 0.054 | 3.1 ± 0.067 |
| VSVLLISKDCSAFACKT [BRR2] | 1.96 ± 0.052 | 2.27 ± 0.042 | 2.21 ± 0.064 | 2.17 ± 0.049 |
| VTEANIIKLVEGLANDP [RPS12] | 2.51 ± 0.12 | 2.76 ± 0.073 | 2.67 ± 0.085 | 2.73 ± 0.073 |
| VTEETTKQIQSVRIDGR [SIR4] | 2.31 ± 0.086 | 3.06 ± 0.077 | 2.83 ± 0.066 | 2.12 ± 0.074 |
| VTHMDQIFVRGSQIKFI [SMD3] | 2.55 ± 0.13 | 2.67 ± 0.14 | 2.17 ± 0.13 | 2.04 ± 0.067 |
| VTLDITTLTIMRILPRE [RPT4] | 2.53 ± 0.057 | 2.25 ± 0.061 | 2.17 ± 0.081 | 2.45 ± 0.038 |
| VTLSQLVSVTSTLQHFQ [MED8] | 1.9 ± 0.029 | 2.02 ± 0.031 | 1.96 ± 0.037 | 1.87 ± 0.02 |
| VTNALDNIDEKVVKAIR [NUT1] | 3.04 ± 0.16 | 2.37 ± 0.14 | 3.07 ± 0.083 | 1.61 ± 0.048 |
| VTNFNSTNEDQNNSKHT [SRB5] | 3.18 ± 0.16 | 2.44 ± 0.15 | 3.06 ± 0.18 | 2.71 ± 0.076 |
| VTNSPLFQTIEKLINNS [ECM29] | 2.73 ± 0.054 | 2.85 ± 0.058 | 2.76 ± 0.085 | 2.92 ± 0.066 |
| VTQSNILSQQFDKIIKI [SRB8] | 2.72 ± 0.07 | 2.96 ± 0.071 | 2.95 ± 0.056 | 2.89 ± 0.045 |
| VTRTHGNSGVVRATFRN [RPL33A] | 2.6 ± 0.075 | 2.82 ± 0.088 | 2.56 ± 0.092 | 2.86 ± 0.073 |

Source: the supplement of paper PMC9732359
